Reference: patent publication US8536121B2, “Methods and reagents for the diagnosis, prevention and treatment of insulin resistance using beta-arrestin2 and its up-regulators” (Shanghai Institutes for Biological Sciences, CAS, priority 2008, dated 2013)

B1: βarrestin2 186-409: truncated mutant of βarrestin2 that interacts with IR but not Akt or Src; overexpressed in Hep3B or delivered by adenovirus (protein)
chain: ETTRHFLMSDRSLHLEASLDKELYYHGEPLNVNVHVTNNSTKTVKKIKVSVRQYADICLFSTAQYKCPVAQLEQDDQVSPSSTFCKVYTITPLLSDNREKRGLALDGKLKHEDTNLASSTIVKEGANKEVLGILVSYRVKVKLVVSRGGDVSVELPFVLMHPKPHDHIPLPRPQSAAPETDVPVDTNLIEFDTNYATDDDIVFEDFARLRLKGMKDDDYDDQLC
modifications: left off: small tags and cut ends
notes: overexpressed in Hep3B or delivered by adenovirus
B2: βarrestin2 1-185: truncated form of βarrestin2 containing amino acids 1-185, dominant negative mutant; overexpressed in Hep3B or delivered by adenovirus (protein)
chain: MGEKPGTRVFKKSSPNCKLTVYLGKRDFVDHLDKVDPVDGVVLVDPDYLKDRKVFVTLTCAFRYGREDLDVLGLSFRKDLFIATYQAFPPVPNPPRPPTRLQDRLLRKLGQHAHPFFFTIPQNLPCSVTLQPGPEDTGKACGVDFEIRAFCAKSLEEKSHKRNSVRLVIRKVQFAPEKPGPQPSA
modifications: left off: small tags and cut ends
notes: as for B1

Tests used:
Akt [1] = test: Insulin-stimulated Akt phosphorylation in Hep3B hepatocytes treated with inhibitors (immunoblot); assay type: cell-based, human; settings: 10 μM PP2 or 100 nM Wortmannin for 30 min, then 100 nM insulin
Method: (§1) FIG. 4A, Activation of PI3K by insulin in livers of βarr2-ko mice (n=6), βarr2-tg mice (n=6) and their wild type littermates (n=6). Mice were injected with either saline or insulin (1 U·kg^−1) for 10 min. PI3K were immuno-purified from liver extracts and PI3K activity were measured by ELISA. Data are presented as mean ±s.e.m. *P<0.05, **P<0.005, versus control. FIG. 4B, FIG. 4C, Activation of Akt and downstream targets by insulin in livers of βarr2-ko mice (n=6) (FIG. 4B), βarr2-tg mice (n=6) (FIG. 4C) and their wild type littermates (n=6). Liver protein extracts prepared as in A were used for immunoblot analysis of pAkt, pFoxol, and pGSK3. […] FIG. 4E, Src-dependent activation of Akt. Hep3B hepatocytes were treated with or without 10 μM Src inhibitor PP2 or 100 nM PI3K inhibitor Wortmanin for 30 min, and then stimulated by 100 nM insulin. Phosphorylation levels of Akt at serine/threonine or tyrosine (n=6) were shown. […]
(§2) After mouse is sacrificed, mouse tissues are quickly excised and frozen in liquid nitrogen. Tissue lysate is prepared and protein concentration is determined by Bradford method. […] For immunoblotting, protein bands, emitting infrared fluorescence through excitation of IRDye800CW conjugated secondary antibody, are obtained by Odyssey infrared imaging system, followed by using Scion Image software (Li-Cor Bioscience, Lincoln, Nebr., USA) to perform quantitative analysis. […]

[2] = test system: Akt/βarrestin2/Src complex; test: Akt/βarrestin2/Src complex formation in liver of C57BL/6 mice injected with insulin (immunoprecipitation); assay type: in vivo, mouse; settings: C57BL/6 mice livers, intraperitoneal insulin 1 U·kg^−1, time-dependent
Method: (§3) C57BL/6 mice (n=6) were injected with 1 U·kg^−1 insulin for the indicated times, and liver protein extracts were prepared for immunoprecipitation using anti-Akt antibodies. […] Liver protein extracts prepared as described in a were subjected to immunoprecipitation for IRβ. […] Liver protein extracts prepared from βarr2-ko (n=6), βarr2-tg (n=6), their wild type littermates (n=6) as described were subjected to immunoprecipitation for IRβ. Akt and Src associated with IRβ were detected on immunoblots. […] Hep3B hepatocytes overexpressing HA-βarrestin2 186-409 or βGal were subjected for immunoblot analysis of pAkt, pFoxol, and pGSK3. All mice were 8-weeks old fed with a regular diet.
as §2, with “method. For immunoprecipitation, add relevant antibodies to cell lysate, incubate at 4° C. overnight, add protein A or protein G agarose beads, incubate at 4° C. for 2 h.” for “method.”

PI3K = PI3K activity (ELISA) in liver of mice injected with insulin; assay type: in vivo, mouse; settings: insulin 1 U·kg^−1 for 10 min; wild type, βarr2-ko and βarr2-tg mice
Method: as §1, with “shown. FIG. 4F, Tyrosine phosphorylation of Akt induced by insulin in livers of βarr2-ko mice (n=6), βarr2-tg mice (n=6) and their wild type littermates (n=6). Akt immuno-purified from protein extracts made in FIG. 4B and FIG. 4C was subjected to immunoblot using antibodies against phosphorylated tyrosine. All mice were 8-weeks old fed with a regular diet. Data are presented as mean ±s.e.m. *P<0.05, **P<0.005, versus control.” for “shown.”

[3] = test system: wild type littermates and βarr2-ko mice; test: Insulin tolerance tests (ITTs); assay type: in vivo, mouse; settings: intraperitoneal 1 U·kg^−1 insulin
Method: (§4) For GTTs, mice are injected intraperitoneal with glucose after starvation for 6 hours. Blood glucose is measure at indicated time points. Mice are injected intraperitoneally under fed conditions for ITTs. Blood are collected and determined the glycemia using a glucometer (Roche Accu-chek). Serum insulin levels are measured using rat/mouse ELISA kit.

Akt [4] = test: Akt phosphorylation in liver of mice injected with insulin (immunoblot); assay type: in vivo, mouse
Method: as §1, §2

Src = target: T1, Src (Homo sapiens, UniProt P12931); test: Co-immunoprecipitation of βarrestin2 truncation mutants with Src in Hep3B hepatocytes; assay type: binding; settings: HA-tagged mutant
T1 construct: Full length of Akt and Src are cloned into modified pcDNA3 vector in-frame with HA or Flag at the N-terminus; expressed in transfected cells; host or cells: Hep3B
Excerpt: (§5) FIG. 5B, Interaction of Akt and Src in liver of wild type littermates but not βarr2-ko mice. Liver protein extracts from βarr2-ko mice (n=6) and their wild type littermates (n=6) were used for immunoprecipitation by anti-Akt or anti-Src antibodies. FIG. 5C, Enhanced interaction of Akt and Src in liver of βarr2-tg mice. Liver protein extracts from βarr2-tg mice (n=6) and their wild type littermates (n=6) were used for immunoprecipitation by anti-Akt or anti-Src antibodies. […] HA-βarrestin2 that co-immunoprecipitated from Hep3B hepatocytes overexpressing Akt or Src without or with HA-βarrestin2, HA-βarrestin2 1-185 was shown on immunoblots using anti-HA antibodies (n=3). […]
(§6) C57BL/6 mice (n=6) were injected with 1 U·kg^−1 insulin for the indicated times, and liver protein extracts were prepared for immunoprecipitation using anti-Akt antibodies. […] Akt and Src associated with IRβ were detected on immunoblots. […]
as §2

C57BL/6 mice = test: Adenovirus encoding βarrestin2 mutants injected into C57BL/6 mice (blood glucose, GTTs, ITTs); assay type: in vivo, mouse; settings: for insulin tolerance in ITTs: 1 U·kg^−1, 7 days after adenovirus injection; for glucose tolerance in GTTs: 1 g·kg^−1, 7 days after adenovirus injection; for blood glucose levels: adenovirus, all time points, vs control mice
Excerpt: C57BL/6 mice were 8 -weeks old fed on regular diet (RD). Data are presented as mean ±s.e.m. *P<0.05, **P<0.005, versus control.
(§7) βarr1-ko and βarr2-ko mice are provided by Dr. Robert J. Lefkowitz (Duke University Medical Center, Durham, N.C.). βarr1-tg and βarr2-tg mice are generated as described (Shi, Y., et al., “Critical regulation of CD4+ T cell survival and autoimmunity by beta-arrestin 1,” Nature Immunol., 8, 817-24 (2007)). All other mice are from Shanghai Laboratory Animal Center, Chinese Academy of Sciences. Animal experiments are performed in accordance with the National Institutes of Heath Guide for the Care and Use of Laboratory Animals. Mice are fed with a regular diet (Formulab 5008, Labdiet 5053) or high-fat diet (55% fat calories) (Harlan-Teklad 93075) and have free access to water and diet. Adenovirus (7×10^9 viral particle/100 μl saline) is injected into the tail vein of db/db mice and C57BL/6 to specifically target the liver. Body weight and food intake are measured as described in: Netea, M. G., et al., “Deficiency of interleukin-18 in mice leads to hyperphagia, obesity and insulin resistance,” Nature Medicine, 12, 650-6 (2006).
as §4
The CsCl purified adenovirus are used as a saline solution (7×10^9 virus particles per […]) and injected through tail vein.

IRβ = target: T2, IRβ (Homo sapiens, UniProt P06213); test: Co-immunoprecipitation of βarrestin2 truncation mutants with IRβ in Hep3B hepatocytes; assay type: binding; settings: HA-tagged mutant
T2 construct: IR immunoprecipitated from Hep3B hepatocytes; endogenous in cells; host or cells: Hep3B
Method: as §3
as §2, with “method. For immunoprecipitation, add relevant antibodies to cell lysate, incubate at 4° C. overnight, add protein A or protein G agarose beads, incubate at 4° C. for 2 h.” for “method.”

db/db diabetic mice = test: Adenovirus injection into db/db diabetic mice (blood glucose, GTTs, ITTs, body weight, food intake, liver βarrestin2); assay type: in vivo, mouse; settings: adenovirus encoding mutant, vs βGal
Method: as §7
as §4, with “kit. […]” for “kit.”

Akt [5] = test: Insulin-stimulated pAkt, pFoxo1, pGSK3 in Hep3B hepatocytes overexpressing βarrestin2 mutants (immunoblot); assay type: cell-based, human; settings: overexpressed in Hep3B hepatocytes, vs βGal
Excerpt: FIG. 5B, Interaction of Akt and Src in liver of wild type littermates but not βarr2-ko mice. Liver protein extracts from βarr2-ko mice (n=6) and their wild type littermates (n=6) were used for immunoprecipitation by anti-Akt or anti-Src antibodies. FIG. 5C, Enhanced interaction of Akt and Src in liver of βarr2-tg mice. Liver protein extracts from βarr2-tg mice (n=6) and their wild type littermates (n=6) were used for immunoprecipitation by anti-Akt or anti-Src antibodies. […] HA-βarrestin2 that co-immunoprecipitated from Hep3B hepatocytes overexpressing Akt or Src without or with HA-βarrestin2, HA-βarrestin2 1-185 was shown on immunoblots using anti-HA antibodies (n=3). FIG. 5F, Hep3B hepatocytes overexpressing HA-βarrestin2 1-185 or βGal were subjected to immunoprecipitation using anti-Akt antibodies. Akt, Src in the immunopurified complex were shown on immunoblots (n=3). […] Hep3B hepatocytes overexpressing HA-βarrestin2 1-185 or βGal were stimulated by insulin and then subjected to immunoblot analysis of pAkt, pFoxol, and pGSK3. All mice were 8-weeks old fed with a regular diet.
as §3
After mouse is sacrificed, mouse tissues are quickly excised and frozen in liquid nitrogen. Tissue lysate is prepared and protein concentration is determined by Bradford method. For immunoprecipitation, add relevant antibodies to cell lysate, incubate at 4° C. overnight, add protein A or protein G agarose beads, incubate at 4° C. for 2 h. Proteins that bind protein A or protein G agarose beads are washed in SDS sample buffer and treated at 50° C. for 20 min followed by SDS-PAGE separation and through immunoblotting method to determine relevant proteins. For immunoblotting, protein bands, emitting infrared fluorescence through excitation of IRDye800CW conjugated secondary antibody, are obtained by Odyssey infrared imaging system, followed by using Scion Image software (Li-Cor Bioscience, Lincoln, Nebr., USA) to perform quantitative analysis. […]

Akt [6] = test: Co-immunoprecipitation of βarrestin2 truncation mutants with Akt in Hep3B hepatocytes; assay type: binding, human; settings: HA-tagged mutant
Excerpt: as §5, §6, §2

Akt/Src complex = test: Akt/Src interaction in Hep3B hepatocytes overexpressing βarrestin2 mutant (anti-Akt immunoprecipitation); assay type: cell-based, human; settings: overexpressed in Hep3B hepatocytes, vs βGal
Excerpt: as §5, with “(n=3). FIG. 5F, Hep3B hepatocytes overexpressing HA-βarrestin2 1-185 or βGal were subjected to immunoprecipitation using anti-Akt antibodies. Akt, Src in the immunopurified complex were shown on immunoblots (n=3).” for “(n=3).”
as §2

Molecule | interaction with Src (Src) | insulin tolerance in ITTs (C57BL/6 mice) | glucose tolerance in GTTs (C57BL/6 mice) | blood glucose levels (C57BL/6 mice) | insulin resistance (db/db diabetic mice) | insulin-stimulated phosphorylation (activation) of Akt (Akt [5]) | interaction with Akt (Akt [6]) | further results
CC(C)(C)n1nc(-c2ccc(Cl)cc2)c2c(N)ncnc21 [PP2] | – | – | – | – | – | – | – | serine/threonine phosphorylation of Akt (Akt [1]): remarkably reduced; tyrosine phosphorylation of Akt (Akt [1]): remarkably reduced
insulin: insulin injected into mice or added to cells as stimulus | – | – | – | – | – | – | – | Akt/Src interactions [2]: marked increase; Akt/βarrestin2 association [2]: marked increase; increase in PI3K activity in liver (PI3K): ~3 fold; blood glucose in ITTs [3]: time-dependent reduction; increase in tyrosine phosphorylation of Akt (Akt [4]; liver of wild type mice, insulin stimulation): ~2 fold; increase in the phosphorylation of Akt at Thr308 or Ser473 in liver (Akt [4]; wild type mice, insulin 1 U·kg^−1 for 10 min): ~3 fold
B1 | not Akt or Src | impair | impair | higher | aggravates | suppresses | not Akt or Src | interaction with IRβ (IRβ): interacts with IRβ
B2 | interacts with Src | impair | impair | higher | aggravates | markedly reduced | not Akt | Akt/Src interactions (Akt/Src complex): inhibits; insulin-stimulated phosphorylation of Foxo1 (Akt [5]): markedly reduced; insulin-stimulated phosphorylation of GSK3 (Akt [5]): markedly reduced
